Test results reported in patent publication US20060115870.

Biological target: T1, Long S6 substrate peptide (32 amino-acid)
T1 chain: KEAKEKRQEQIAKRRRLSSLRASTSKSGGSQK

B1: Human recombinant Rho kinase (ROKα/ROCK-II, amino acids 11-552), human active, catalog #14-451, Upstate USA, Inc. (protein)
chain: PGAPETAPGDGAGASRQRKLEALIRDPRSPINVESLLDGLNSLVLDLDFPALRKNKNIDNFLNRYEKIVKKIRGLQMKAEDYDVVKVIGRGAFGEVQLVRHKASQKVYAMKLLSKFEMIKRSDSAFFWEERDIMAFANSPWVVQLFYAFQDDRYLYMVMEYMPGGDLVNLMSNYDVPEKWAKFYTAEVVLALDAIHSMGLIHRDVKPDNMLLDKHGHLKLADFGTCMKMDETGMVHCDTAVGTPDYISPEVLKSQGGDGFYGRECDWWSVGVFLYEMLVGDTPFYADSLVGTYSKIMDHKNSLCFPEDAEISKHAKNLICAFLTDREVRLGRNGVEEIRQHPFFKNDQWHWDNIRETAAPVVPELSSDIDSSNFDDIEDDKGDVETFPIPKAFVGNQLPFIGFTYYRENLLLSDSPSCRENDSIQSRKNEESQEIQKKLYTLEEHLSNEMQAKEELEQKCKSVNTRLEKTAKELEEEITLRKSVESALRQLEREKALLQHKNAEYQRKADHEADKKRNLENDVNSLKDQLEDLKKRNQNSQI
Maximum DPMs found in phosphorylated substrate (i.e. product): 52,557±2,058 (n=14) (0.22% of total added DPMs)
Net fold phosphorylation of substrate (33P incorporation, filter mat kinase assay): 4.4-fold above basal blanks (n=14 experiments; 42 separate assay determinations)
